Consider 2 molecules from publication PMC8134030 (Biochemistry and Biophysics Reports, 2021).

Broadly, the Kd is a measure of binding affinity in units of concentration. Low readings indicate a tighter complex, high ones a looser complex.

Common to all, as to assay: pull-down
One assay addresses T1, MBP:Ncd^FL (Drosophila, UniProt P20480 1-700).
T1 sequence (looked up): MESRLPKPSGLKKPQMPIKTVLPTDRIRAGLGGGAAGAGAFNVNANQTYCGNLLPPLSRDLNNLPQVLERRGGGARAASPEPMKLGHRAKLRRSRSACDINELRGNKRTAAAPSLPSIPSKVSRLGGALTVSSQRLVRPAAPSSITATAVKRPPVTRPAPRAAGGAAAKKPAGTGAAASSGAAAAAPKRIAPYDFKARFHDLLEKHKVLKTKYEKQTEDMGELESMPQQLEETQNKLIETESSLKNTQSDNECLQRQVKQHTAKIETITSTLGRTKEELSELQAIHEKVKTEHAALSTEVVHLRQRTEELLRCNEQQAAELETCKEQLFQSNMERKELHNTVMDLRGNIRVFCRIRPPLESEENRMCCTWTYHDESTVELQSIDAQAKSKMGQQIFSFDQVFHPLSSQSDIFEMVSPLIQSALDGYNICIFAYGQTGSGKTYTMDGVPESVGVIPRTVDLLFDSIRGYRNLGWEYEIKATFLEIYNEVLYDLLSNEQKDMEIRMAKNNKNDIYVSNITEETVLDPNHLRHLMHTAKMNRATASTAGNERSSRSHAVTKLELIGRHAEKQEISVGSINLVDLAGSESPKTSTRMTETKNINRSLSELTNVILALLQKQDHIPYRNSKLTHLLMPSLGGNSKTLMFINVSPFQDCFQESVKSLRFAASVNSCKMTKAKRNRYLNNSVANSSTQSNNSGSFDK

A further assay has as its target T2, MBP:Ncd^CTm (Drosophila, UniProt P20480 333-700).
T2 sequence (looked up): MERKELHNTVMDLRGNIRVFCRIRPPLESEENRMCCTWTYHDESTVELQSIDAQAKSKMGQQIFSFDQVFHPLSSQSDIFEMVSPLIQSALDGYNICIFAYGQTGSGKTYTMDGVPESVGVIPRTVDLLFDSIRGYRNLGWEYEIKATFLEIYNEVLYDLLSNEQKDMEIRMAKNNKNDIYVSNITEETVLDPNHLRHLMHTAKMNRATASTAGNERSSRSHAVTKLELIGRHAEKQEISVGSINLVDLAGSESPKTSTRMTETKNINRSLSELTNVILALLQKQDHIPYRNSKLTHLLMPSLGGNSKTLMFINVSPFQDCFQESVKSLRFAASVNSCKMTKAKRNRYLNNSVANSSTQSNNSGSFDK

Another assay addresses T3, MBP:Ncd^CTm3A (Drosophila, UniProt P20480 333-700, H619A | R623A | H629A).
T3 sequence (looked up): T2 sequence (looked up) with H287A, R291A, H297A

Numbering of substitutions follows the chain as printed.

B1: Ncd^CTm, soluble untagged prey (domain or fragment, Drosophila, UniProt P20480 333-700, looked up)
chain: T2 sequence (looked up)
B1: in the assay with MBP:Ncd^FL, the binding result is on record as “binds”.

B2: Ncd^nMBD, soluble untagged prey (domain or fragment, Drosophila, UniProt P20480 1-204, looked up)
chain: MESRLPKPSGLKKPQMPIKTVLPTDRIRAGLGGGAAGAGAFNVNANQTYCGNLLPPLSRDLNNLPQVLERRGGGARAASPEPMKLGHRAKLRRSRSACDINELRGNKRTAAAPSLPSIPSKVSRLGGALTVSSQRLVRPAAPSSITATAVKRPPVTRPAPRAAGGAAAKKPAGTGAAASSGAAAAAPKRIAPYDFKARFHDLLE
Turning to B2, in the assay with MBP:Ncd^CTm, the Kd is ~2 µM. Also, the “fold reduction in binding affinity against WT” value with MBP:Ncd^CTm3A was ~10 fold.
